From the DeepSol protein solubility set come the findings set out here.

A short description of the series: soluble on expression in E. coli; label from the status in PepcDB or PDB records.
Regarding “MTDFSRTFSGTPSAVLPTANRFFRPPLPSAHVARPRLCRRLRDGLDGRLLLIAAPAGFGKSSLAIEFCESLDPRWQSLWLGLSSRESDPGRFLERLLDGLRQYHPTLGEEALGLLKMRQRHQPFAFETWLDDLLDELAPCLDPQRPLLLVLDDYHLAQGAVLDRCLQFLLNHLPEGLVLLVTSRQRPDWHLARLRLSRQLLELSEQDLRLTAEESGALMAASGLELDEDALDALLERSEGWVAGLRLWLLARGDPEEQVSPGVHGADELIRDYLLEEVIERQPPEVQAFLAQTARFERFCAELCDTVREAGDSAAILDHLQQHQVFLVPLDENGQWFRYHHLFSDLLLARPLPDFGPSAGSLHLRACGWFSRHGLLDQAVEQALRAGQPDVAASLVQNLSEEQLLAEQNIATLLRWKMDLPDSLLASTPRLILLYGWALALACQLDAAEELAGQLARFLPAPDESAQRDLLAQWQALSGVIARGRGDIDKAEAHCREALQDLAGERYGTRLQCLSTLSNLAVTRGDFWQA”, the “soluble on expression in E. coli” value is recorded as “not soluble”.

Turning to “MKLCGKLANITTVDYGGIACHAGVDRRISLHNFTISLPESGNPMSATFDPDNLRASLLALNVIDPLSLDGQAYQRFYGLAGLGGENVVRSWLGRLDVDGYEIVGQVWLPESPVATLFLFHGFYDHMGLYRHVIEWALTQGFAVISCDLPGHGLSSGSRASINDFAEYQVVLQRLLLEAGSLGLPHPWHLCGQSTGGAIVIDHLLHQGAESPAQGEVILLAPLVRPRAWGWSRFSYRLLKPFVSGIARRFTENSNAPAFLPFLLADPLQPRRLPTAWVGALAQWIVRVESAPRSLRSPIIIQGDADMTVDWSHNLAVLKDKFSQPHILMLGHARHHLANETPELRARYFDFVKGRLG”, the “soluble on expression in E. coli” value is “not soluble”.

As to “DWEVETGERYLPKLPECKIDNSKYQHPIQVVPSGPGMPEYLIYQVLTLAINQANRSVRITTPYFVPNTDLLETLKMTAQRGIDVELIIPHKNDSLMVQWASRAFYSELLAAGVKIYEFYGGLLHTKSVVIDDQFCLVGTVNMDMRSLWLNFEVTLAVDDEEFTKQLSWLQDGYIKQSHPVVLDEWEKRSLYSRFLERVFYLFNPLL”, the “soluble on expression in E. coli” value is “not soluble”. In the case of “MGSDKIHHHHHHMPVRRIALITNGYPDIYARERSFILPELKALLAYGHQVTLVPVREVTEVDPDLPDGVAVERRLAHLYRPWQLPATVLWMMFRGYFWREAWQCLGRGRLRYLGHFFKESVRATNTLRMQSALRDYDVLYTYWFKGESTGISLMPGTHARRLTRAHGYDLYEDRPNNEGYIPYREMTLPRLDRVVVLSEEARAYLEQRYPASVGRTVVSPLGVAHESDENPGPEADRIVLVSCSYPTPNKRLPLIGQLAAAVACARPSVKVVWMHFGCRREEAGLPVDFAGPPNLSVQFAGEAPNEHIRRWYATRPVSFFVNLSQSEGQPVSIMEAMAFGIPVMATGVGGIPEMLRHGGGMTLPEQPDVNAVAREMLSLLDDPSRYQAMREAARETQLAYFNTSANHRTLADLIGEF”, the “soluble on expression in E. coli” value is reported as “not soluble”. The result for “MGSDKIHHHHHHYEKIYDVNHVCYYTLTSVELQKFVKTAEIITPLNADNKTTITKDTILVGNPEENPLTKKYIGFFKIKINKTFPGKNKGIIEKQIINGHTVILLAGSDIQGTYASIITFANLNDIPENPIICETSNKVNIYSTSLNSEYFRDFIEKNILTPKEIEKVKSLSYKLKGKDKKATIENIAKWVANNIKYDYDKCKKIESGKFSWDEYNTPSETVKTKKGVCLDYATLTSALLLNDNIIPYMLDVALYNTSSLKISSYHASVAVKIDNTYFVIDQQPYLIPINEYTAQTFEDNLRIASIVMFRVVKERDGIKLIKEKEVPGIAIYGDLINLLEMRFNN” reads “not soluble”; that for “MYNITLPVLGTRLKQIREHVGYSQAQLAEQLNCKQNAISNLELGKGGSLKLLFQVLNFYSNYVFIDLIFSEKFYLISNTEEDEAQKANYNSVIIEIIRQSEKNYENAMSNAKKELEANLQKAINLLQP”, “not soluble”; that for “MAHHHHHHMSELKIGFLGCGSMGECIMAGLLKAKALGPENTFICNRSASTNERLVSLYQVKSVSAVELAEKSDIIMLGVKPYGIVPVLETIKEKITPSKLVVSMAAGVPIATIENHCPPKTKVVRVMPNIPSYVGEGVTSISGNSAVTPDDEAVVMKLFSAIGKSYLVAESAIHGVVGVAGSSPAYVFMFMEALSDGAVRGGIPRAQSYEMAAQAVLGAAKMLQDSGKTPSALKDMVCSPGGTTIEAVRFLEKGGMRSSIIEAMIQCMEKSKEFERMYSE”, “soluble”.
